Data taken from the supplement of paper PMC11246515.
± gives the standard deviation of the averaged measurements.

Experiment: total protein half-life in vivo (active degradation + dilution); higher = more stable protein
[1] = E. coli NCM3722 delta-clpP delta-lon delta-hslV, growth: N-lim chemostat, doubling time 6 h
[2] = E. coli NCM3722 delta-clpP, growth: N-lim chemostat, doubling time 6 h
[3] = E. coli NCM3722 delta-hslV, growth: N-lim chemostat, doubling time 6 h
[4] = E. coli NCM3722 delta-lon, growth: N-lim chemostat, doubling time 6 h
[5] = E. coli NCM3722 delta-smpB, growth: N-lim chemostat, doubling time 6 h
[6] = wild type E. coli NCM3722, growth: C-lim chemostat, doubling time 6 h
[7] = wild type E. coli NCM3722, growth: C-lim chemostat, doubling time 12 h
[8] = wild type E. coli NCM3722, growth: N-lim chemostat, doubling time 6 h
[9] = wild type E. coli NCM3722, growth: N-lim chemostat, doubling time 12 h
[10] = wild type E. coli NCM3722, growth: P-lim chemostat, doubling time 6 h
[11] = wild type E. coli NCM3722, growth: P-lim chemostat, doubling time 12 h
[12] = wild type E. coli NCM3722, growth: C-lim chemostat, doubling time 3 h

Row | Sequence | total protein half-life in vivo [1] | total protein half-life in vivo [2] | total protein half-life in vivo [3] | total protein half-life in vivo [4] | total protein half-life in vivo [5] | total protein half-life in vivo [6] | total protein half-life in vivo [7] | total protein half-life in vivo [8] | total protein half-life in vivo [9] | total protein half-life in vivo [10] | total protein half-life in vivo [11] | total protein half-life in vivo [12]
1 | MNKAIKVSLYISFVLIICALSKNIMMLNTSDFGRAIKPLIEDIPAFTYDLPLLYKLKGHIDSIDSYEYISSYSYILYTYVLFISIFTEYLDARVLSLFLKVIYIYSLYAIFTSYIKTERYVTLFTFFILAFLMCSSSTLSMFASFYQEQIVIIFLPFLVYSLTCKNNKSMLLLFFSLLIISTAKNQFILTPLIVYSYYIFFDRHKLIIKSVICVVCLLASIFAISYSKGVVELNKYHATYFGSYLYMKNNGYKMPSYVDDKCVGLDAWGNKFDISFGATPTEVGTECFESHKDETFSNALFLLVSKPSTIFKLPFDDGVMSQYKENYFHVYKKLHVIYGESNILTTITNIKDNIFKNIRFISLLLFFIASIFIRNNKIKASLFVVSLFGISQFYVSFFGEGYRDLSKHLFGMYFSFDLCLYITVVFLIYKIIQRNQDNSDVKH | 5.64 h | 6.29 ± 1.9 h | 5.24 ± 0.26 h | 4.87 ± 0.47 h | 4.88 ± 0.4 h | 6.387 ± 0.036 h | 12 h | 5.59 ± 0.57 h | 9.92 ± 2.3 h | 5.62 ± 0.53 h | 10.2 ± 1.1 h | 
2 | MLTEQQRRELDWEKTDGLMPVIVQHAVSGEVLMLGYMNPEALDKTLESGKVTFFSRTKQRLWTKGETSGNFLNVVSIAPDCDNDTLLVLANPIGPTCHKGTSSCFGDTAHQWLFLYQLEQLLAERKSADPETSYTAKLYASGTKRIAQKVGEEGVETALAATVHDRFELTNEASDLMYHLLVLLQDQGLDLTTVIENLRKRHQ | 5.08 ± 0.17 h | 4.38 ± 0.43 h | 5.44 ± 1.4 h | 4.24 ± 0.072 h | 4.046 ± 0.0072 h | 5.63 ± 1 h |  | 4.51 ± 0.3 h | 6.795 ± 0.027 h |  | 12.9 ± 3.1 h | 2.92 ± 0.14 h
3 | MQVLHVCSEMFPLLKTGGLADVIGALPAAQIADGVDARVLLPAFPDIRRGVTDAQVVSRRDTFAGHITLLFGHYNGVGIYLIDAPHLYDRPGSPYHDTNLFAYTDNVLRFALLGWVGAEMASGLDPFWRPDVVHAHDWHAGLAPAYLAARGRPAKSVFTVHNLAYQGMFYAHHMNDIQLPWSFFNIHGLEFNGQISFLKAGLYYADHITAVSPTYAREITEPQFAYGMEGLLQQRHREGRLSGVLNGVDEKIWSPETDLLLASRYTRDTLEDKAENKRQLQIAMGLKVDDKVPLFAVVSRLTSQKGLDLVLEALPGLLEQGGQLALLGAGDPVLQEGFLAAAAEYPGQVGVQIGYHEAFSHRIMGGADVILVPSRFEPCGLTQLYGLKYGTLPLVRRTGGLADTVSDCSLENLADGVASGFVFEDSNAWSLLRAIRRAFVLWSRPSLWRFVQRQAMAMDFSWQVAAKSYRELYYRLK [P0A6U8] | 6.98 ± 0.61 h | 6.92 ± 1.1 h | 6.028 ± 0.0091 h | 5.806 ± 0.035 h | 5.83 ± 0.06 h | 6.7 ± 0.36 h | 11.4 ± 0.49 h | 6.21 ± 0.21 h | 13.2 ± 2 h | 6.32 ± 0.3 h | 12.4 ± 0.65 h | 3.03 ± 0.11 h
4 | MAIKLEIKNLYKIFGEHPQRAFKYIEQGLSKEQILEKTGLSLGVKDASLAIEEGEIFVIMGLSGSGKSTMVRLLNRLIEPTRGQVLIDGVDIAKISDAELREVRRKKIAMVFQSFALMPHMTVLDNTAFGMELAGINAEERREKALDALRQVGLENYAHSYPDELSGGMRQRVGLARALAINPDILLMDEAFSALDPLIRTEMQDELVKLQAKHQRTIVFISHDLDEAMRIGDRIAIMQNGEVVQVGTPDEILNNPANDYVRTFFRGVDISQVFSAKDIARRTPNGLIRKTPGFGPRSALKLLQDEDREYGYVIERGNKFVGAVSIDSLKTALTQQQGLDAALIDAPLAVDAQTPLSELLSHVGQAPCAVPVVDEDQQYVGIISKGMLLRALDREGVNNG | 5.58 ± 1.6 h |  |  |  |  |  |  | 5.28 h |  |  |  | 1.16 h
5 | MKKVWLNRYPADVPTEINPDRYQSLVDMFEQSVARYADQPAFVNMGEVMTFRKLEERSRAFAAYLQQGLGLKKGDRVALMMPNLLQYPVALFGILRAGMIVVNVNPLYTPRELEHQLNDSGASAIVIVSNFAHTLEKVVDKTAVQHVILTRMGDQLSTAKGTVVNFVVKYIKRLVPKYHLPDAISFRSALHNGYRMQYVKPELVPEDLAFLQYTGGTTGVAKGAMLTHRNMLANLEQVNATYGPLLHPGKELVVTALPLYHIFALTINCLLFIELGGQNLLITNPRDIPGLVKELAKYPFTAITGVNTLFNALLNNKEFQQLDFSSLHLSAGGGMPVQQVVAERWVKLTGQYLLEGYGLTECAPLVSVNPYDIDYHSGSIGLPVPSTEAKLVDDDDNEVPPGQPGELCVKGPQVMLGYWQRPDATDEIIKNGWLHTGDIAVMDEEGFLRIVDRKKDMILVSGFNVYPNEIEDVVMQHPGVQEVAAVGVPSGSSGEAVKIFVVKKDPSLTEESLVTFCRRQLTGYKVPKLVEFRDELPKSNVGKILRRELRDEARGKVDNKA |  | 5.82 ± 0.16 h | 5.05 ± 0.23 h | 5.34 ± 0.82 h | 4.279 ± 0.022 h | 3.98 ± 0.57 h | 6.59 ± 0.46 h | 4.879 ± 0.022 h | 10.9 ± 1.6 h | 4.93 ± 0.11 h | 10.8 ± 1.1 h | 1.68 ± 0.16 h
6 | MNRTILVPIDISDSELTQRVISHVEEEAKIDDAEVHFLTVIPSLPYYASLGLAYSAELPAMDDLKAEAKSQLEEIIKKFKLPTDRVHVHVEEGSPKDRILELAKKIPAHMIIIASHRPDITTYLLGSNAAAVVRHAECSVLVVR | 5.69 ± 1.3 h | 4.76 ± 0.38 h | 6.17 ± 2.1 h | 3.98 ± 0.51 h | 4.47 ± 0.24 h | 5.75 ± 0.62 h | 10.3 ± 1.1 h | 4.7255 ± 0.0038 h | 7.83 ± 0.48 h | 5.521 ± 0.026 h | 9.62 ± 1 h | 3.61 ± 0.042 h
7 | MMHRLNLNGYEPDRHHEAAVAFCIHAGTDELTSPVHQHRKGQLILALHGAITCTVENALWMVPPQYAVWIPGGVEHSNQVTANAELCFLFIEPSAVTMPTTCCTLKISPLCRELILTLANRTTTQRAEPMTRRLIQVLFDELPQQPQQQLHLPVSSHPKIRTMVEMMAKGPVEWGALGQWAGFFAMSERNLARLIVKETGLSFRQWRQQLQLIMALQGLVKGDTVQKVAHTLGYDSTTAFITMFKKGLGQTPGRYIARLTTVSPQSAKPDPRQ | 4.97 ± 0.56 h |  |  |  |  |  |  |  |  |  |  | 
8 | MSIKNLPADYLLAAQQGDIDKVKTCLALGVDINTCDRQGKTAITLASLYQQYACVQALIDAGADINKQDHTCLNPFLISCLNDDLTLLRIILPAKPDLNCVTRFGGVGLTPACEKGHLSIVKELLAHTEINVNQTNHVGWTPLLEAIVLNDGGIKQQAIVQLLLEHGASPHLTDKYGKTPLELARERGFEEIAQLLIAAGA | 5.2 h |  |  |  |  |  |  |  |  |  |  | 
